Measurements published in paper doi:10.1101/559120.

Target: branched-chain amino acid aminotransferase from Pseudomonas sp. (Pseudomonas sp.)
Test: crystal structure

## branched-chain amino acid aminotransferase from Pseudomonas sp. (enzyme)
  stoichiometry N: 2
